Where a SMILES comes first, the peptide text is derived from it. [ ]: non-standard residue; d: D form. The star is where a group is joined. 5FAM = O=C1OC2(c3ccc(O)cc3Oc3cc(O)ccc32)c2ccc(C(=O)*)cc21
Tests used:
Aβ42 [1] = target: T1, Aβ42 (Homo sapiens, UniProt P05067); test: ThT assay, fibrillation kinetics of Aβ42; assay type: biochemical; conditions: 50 mM NaCl pH 7.4, 20 °C, AmyloFit fit, triplicate
T1 construct: purchased Bachem H-1368.1000
Method: ThT was added at a final concentration of 5 μM in all samples. The final volume of each sample was 200 μL. Samples were prepared on ice and were pipetted into a 96-well plate afterwards. The plate was sealed with a microplate sealing film. All measurements were conducted at 20 °C with a microplate reader (Infinite M200, Tecan, Männedorf, Switzerland). The fluorescence was recorded at an excitation wavelength (λex) of 445 nm and an emission wavelength (λem) of 485 nm every 30 min for 120 h. […] All samples were prepared in triplicate.
The ThT data was then subjected to the online server AmyloFit with a customized sigmoidal Equation (1) to determine the lag time tlag , and the half completion time of the aggregation process t1/2 , according to previous studies. (1) It=k0t+A/1+exp−kt−t1/2, where k0 represents the slope of the baseline, A is the amplitude, k denotes the apparent elongation rate constant. The lag time tlag can be derived from the intercept between the time axis and the tangent with slope k from the midpoint of the fitted sigmoidal curve, which is given by the following Equation (2):(2) tlag=t1/2−2/k

[2] = Sedimentation velocity AUC with fluorescence detection, labeled peptide alone; assay type: physicochemical; conditions: AUC-FDS, 60,000 rpm, 20 °C, 15 h, c(s) model; 0.2 μM FITC-D3 in 20 mM sodium phosphate, 50 mM NaCl pH 7.4, 0.0004% PEI; 0.33 μM FITC-Aβ42 in 55 mM Tris, 50 mM NaCl pH 7.4, 0.01% Tw20
Method: All measurements were performed using an XL-A analytical ultracentrifuge (Beckman coulter, Brea, CA, USA). […] All samples were prepared in 20 mM sodium phosphate, 50 mM NaCl (pH 7.4) containing 0.0004% PEI (w/v). Samples were then loaded into 3-mm double-sector titanium cells (Nanolytics, Potsdam, Germany), with each sector containing a 100 μL sample. The detection system uses an excitation laser at 488 nm and an emission cut-off filter at 505 nm to collect fluorescence signals. The amplification factor was adjusted to the same value for all samples for comparability. […] Data was acquired at 20 nm radial resolution. After thorough thermal equilibration the centrifugation was carried out at 60,000 rpm (289,000× g) at 20 °C for 15 h. Carrier proteins, such as albumin and kappa casein, are usually recommended to minimize unspecific surface adsorption for fluorescence-based AUC [56]. All sedimentation profiles were subjected to the software package SEDFIT (version 15.01b) for data evaluation. The data was analyzed with the continuous distribution c(s) Lamm equation model to obtain the sedimentation coefficient distributions. Fitting parameters (Table S1) including the buffer density and viscosity were determined using Sednterp (version 20130813BETA). […]

Aβ42 [3] = target: T1, Aβ42; test: Sedimentation velocity AUC with fluorescence detection, Aβ42 and D3 mixtures; assay type: binding
Method: All measurements were performed using an XL-A analytical ultracentrifuge (Beckman coulter, Brea, CA, USA). […] All samples were prepared in 20 mM sodium phosphate, 50 mM NaCl (pH 7.4) containing 0.0004% PEI (w/v). Samples were then loaded into 3-mm double-sector titanium cells (Nanolytics, Potsdam, Germany), with each sector containing a 100 μL sample. The detection system uses an excitation laser at 488 nm and an emission cut-off filter at 505 nm to collect fluorescence signals. The amplification factor was adjusted to the same value for all samples for comparability. […] Data was acquired at 20 nm radial resolution. After thorough thermal equilibration the centrifugation was carried out at 60,000 rpm (289,000× g) at 20 °C for 15 h. Carrier proteins, such as albumin and kappa casein, are usually recommended to minimize unspecific surface adsorption for fluorescence-based AUC [56]. All sedimentation profiles were subjected to the software package SEDFIT (version 15.01b) for data evaluation. The data was analyzed with the continuous distribution c(s) Lamm equation model to obtain the sedimentation coefficient distributions. Fitting parameters (Table S1) including the buffer density and viscosity were determined using Sednterp (version 20130813BETA). […] Final graphs were generated using GUSSI (version 1.2.1) and sedimentation coefficients were standardized to s-values in pure water at 20 °C (s20,w).

[4] = 20 μM Aβ42 with (label D3, 10:1) or without (label Aβ42) 2 μM D3, 55 mM Tris-HCl

T1 sequence (P05067 672-713 limits assumed): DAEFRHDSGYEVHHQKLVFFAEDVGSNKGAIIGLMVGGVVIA

Compound | Lag time tlag of fibrillation kinetics (Aβ42 [1]; 20 μM Aβ42 with (label D3) or without (label Aβ42) 2 μM D3, 20 mM sodium phosphate, 5 μM ThT) [h] | Lag time tlag of fibrillation kinetics, Tris-HCl buffer (Aβ42 [1]; [4]) [h] | Slope k of fibrillation kinetics, Tris-HCl buffer (Aβ42 [1]; [4]) | Sedimentation coefficient s20,w of the labeled peptide alone [2] [S] | s20,w of the main peak of FITC-D3 with Aβ42 (Aβ42 [3]; 0.2 μM FITC-D3 with 50-fold excess of Aβ42, 20 mM sodium phosphate, 50 mM NaCl pH 7.4, 0.0004% PEI, interpreted as 1:1 complex) [S] | Averaged s20,w of the new species between 1 and 2 S, FITC-D3 with Aβ42 (Aβ42 [3]; 0.2 μM FITC-D3 with Aβ42, c(s) analyses from five independent experiments, complexes with higher stoichiometries) [S]
Aβ42: unlabeled amyloid-β peptide 42, Bachem product No. H-1368.1000 [reference compound] | 17.3 ± 1.6 | 14.5 ± 1.4 | 0.13 ± 0.01 | – | – | –
CC(C)C[C@@H](NC(=O)[C@@H](CCCNC(=N)N)NC(=O)[C@H](NC(=O)[C@@H](CCCNC(=N)N)NC(=O)[C@H]1CCCN1C(=O)[C@H](N)CCCNC(=N)N)[C@H](C)O)C(=O)N[C@H](Cc1c[nH]cn1)C(=O)N[C@@H](C(=O)N[C@H](Cc1c[nH]cn1)C(=O)N[C@H](CCCNC(=N)N)C(=O)N[C@H](CC(N)=O)C(=O)N[C@H](CCCNC(=N)N)C(=O)N[C@@H](CCCCNC(=O)c1ccc2c(c1)C(=O)OC21c2ccc(O)cc2Oc2cc(O)ccc21)C(N)=O)[C@H](C)O [FITC-D3] (H-[dR][dP][dR][dT][dR][dL][dH][dT][dH][dR][dN][dR]K(5FAM)-NH2; N-terminus and C-terminus assumed) | – | – | – | 0.54 ± 0.02 | 0.71 ± 0.04 | 1.45 ± 0.08

Reference: article PMC6600523, “Interference with Amyloid-β Nucleation by Transient Ligand Interaction” (Molecules, 2019)
